From patent publication US20120141456A1 (Biogen, published 2012) come the findings set out here.

Assay [1] addresses T1, full-length mouse DR6 on transfected cells (mouse, UniProt Q9EPU5 42-655).
T1 sequence: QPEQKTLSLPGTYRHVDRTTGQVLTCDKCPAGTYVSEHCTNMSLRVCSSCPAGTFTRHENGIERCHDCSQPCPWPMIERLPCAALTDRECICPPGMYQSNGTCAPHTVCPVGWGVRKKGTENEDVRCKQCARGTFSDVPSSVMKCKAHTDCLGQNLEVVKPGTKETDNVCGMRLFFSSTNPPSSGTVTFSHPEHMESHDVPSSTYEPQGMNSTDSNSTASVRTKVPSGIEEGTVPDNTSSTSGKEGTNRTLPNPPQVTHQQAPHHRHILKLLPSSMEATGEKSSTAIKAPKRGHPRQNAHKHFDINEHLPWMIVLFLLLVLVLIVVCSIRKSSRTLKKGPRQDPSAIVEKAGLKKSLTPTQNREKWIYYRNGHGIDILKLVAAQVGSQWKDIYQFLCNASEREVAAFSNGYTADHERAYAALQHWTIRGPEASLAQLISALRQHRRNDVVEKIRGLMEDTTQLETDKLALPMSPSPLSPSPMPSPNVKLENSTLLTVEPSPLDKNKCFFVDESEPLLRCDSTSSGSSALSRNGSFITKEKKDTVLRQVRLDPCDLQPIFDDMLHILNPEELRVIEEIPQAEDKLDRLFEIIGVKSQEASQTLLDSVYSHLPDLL
Put plainly: FACS on 293T cells transfected with mouse DR6 (FIG. 13C). As for the experimental part: (§1) Six million HEK293 cells were transfected with 10 ug of plasmid DNA, which encoded full length human, rat, or mouse DR6. Three days after transfection, approximately 50,000 cells in 200 μL of PBS, 1% BSA, 0.1% NaN3 (FACS buffer) were analyzed. Cells were pelleted and resuspended in 150 μl of serial dilutions of anti-DR6 antibodies in FACS buffer. Samples were incubated for 1 hour on ice with occasional agitation and then washed three times. Bound DR6 antibody was visualized with PE-labeled goat F(ab)₂ anti-human Fab (for Dyax Fabs) or anti-mouse IgG specific antibody (for monoclonal antibodies) (Jackson Labs).

Assay [2] has as its target T2, full-length human DR6 on transfected cells (human, UniProt O75509 42-655).
T2 construct: also called Death Receptor-6; TNFRSF21
T2 sequence: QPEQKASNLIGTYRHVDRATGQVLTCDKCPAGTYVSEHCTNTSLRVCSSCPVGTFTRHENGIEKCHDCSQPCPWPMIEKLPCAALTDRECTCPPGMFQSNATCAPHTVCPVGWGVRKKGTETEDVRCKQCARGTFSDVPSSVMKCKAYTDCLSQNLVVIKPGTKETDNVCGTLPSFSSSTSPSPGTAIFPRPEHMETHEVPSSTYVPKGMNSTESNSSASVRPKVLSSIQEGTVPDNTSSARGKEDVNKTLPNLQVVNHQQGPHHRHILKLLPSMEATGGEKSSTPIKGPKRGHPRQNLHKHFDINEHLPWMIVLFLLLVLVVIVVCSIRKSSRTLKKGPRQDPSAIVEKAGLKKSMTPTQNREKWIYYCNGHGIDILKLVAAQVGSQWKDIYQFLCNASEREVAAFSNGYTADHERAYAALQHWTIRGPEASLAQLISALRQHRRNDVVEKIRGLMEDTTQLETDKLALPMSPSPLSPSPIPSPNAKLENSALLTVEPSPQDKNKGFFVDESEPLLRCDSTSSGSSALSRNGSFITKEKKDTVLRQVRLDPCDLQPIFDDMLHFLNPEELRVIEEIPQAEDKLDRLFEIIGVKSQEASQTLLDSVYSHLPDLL
Put plainly: FACS on 293T cells transfected with human DR6 (FIG. 13B). The method, then: as §1

The target in assay [3] is T3, full-length rat DR6 on transfected cells (rat, UniProt D3ZF92 42-655).
T3 construct: whole, on cells
T3 sequence (looked up): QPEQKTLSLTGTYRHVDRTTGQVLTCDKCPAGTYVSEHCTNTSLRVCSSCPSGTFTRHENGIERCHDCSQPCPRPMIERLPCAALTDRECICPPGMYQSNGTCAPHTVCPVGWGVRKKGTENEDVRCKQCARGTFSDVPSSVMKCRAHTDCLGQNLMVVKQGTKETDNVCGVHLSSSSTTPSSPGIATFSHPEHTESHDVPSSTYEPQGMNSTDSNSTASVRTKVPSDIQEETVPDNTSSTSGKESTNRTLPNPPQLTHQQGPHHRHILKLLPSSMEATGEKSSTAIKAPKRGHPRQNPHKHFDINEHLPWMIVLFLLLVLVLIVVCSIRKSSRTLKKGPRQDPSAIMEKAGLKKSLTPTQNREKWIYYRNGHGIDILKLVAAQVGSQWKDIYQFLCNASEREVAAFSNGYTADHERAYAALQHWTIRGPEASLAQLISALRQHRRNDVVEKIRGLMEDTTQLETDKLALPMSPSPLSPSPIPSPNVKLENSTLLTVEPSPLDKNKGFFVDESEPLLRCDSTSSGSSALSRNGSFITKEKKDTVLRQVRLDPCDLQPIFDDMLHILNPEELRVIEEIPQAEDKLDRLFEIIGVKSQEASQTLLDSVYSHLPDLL
Description: FACS on 293T cells transfected with rat DR6 (FIG. 13A). The method, then:
as §1

For assay [4], the target named is T2, full-length human DR6 on transfected …. Description: FACS on 293E cells transfected with full-length human DR6.
Assay [5] has as its target T3, full-length rat DR6 on transfected cells. Description: FACS on HEK293 cells transfected with full length rat DR6, serial dilutions of antibody. As for the experimental part:
as §1

Assay [6] addresses T2, full-length human DR6 on transfected …. Put plainly: FACS on HEK293 cells transfected with full length human DR6, serial dilutions of antibody. The method, then: as §1
The target of assay [7] is T1, full-length mouse DR6 on transfected …. Description: FACS on HEK293 cells transfected with full length mouse DR6, serial dilutions of antibody. As for the experimental part: as §1

B1: 1P2F2.1 (antibody, V domains shown)
VH: QVQLQQSGPEVARPGASVKLSCKASGYTFTDYYLNWVKQRTGQGLEWIGEIYPGNNHTYYNEKFKGKATLTADNSSSTAYLQFSSLTSEDSAVYFCTRGVIKWGQGTLVTVSV
VL: DILMTQSPSSMSVSLGDTVSITCHASQGIRNSIGWLQQKPGKSFKGLIYHATTLEDGVPSRFTGSGSGADFSLTISSLESEDFADYYCVQYAQFPYTFGGGTKLEIK
notes: Murine hybridoma monoclonal antibody; subgroup II(A) heavy chain, subgroup V kappa light chain
Consider B1, for which the binding result in assay [1], in assay [2] and in assay [3] was “binds” in each case.

B2: M53-F04 (Fab, V domains shown)
VH: EVQLLESGGGLVQPGGSLRLSCAASGFTFSEYTMHWVRQAPGKGLEWVSVISSSGGRTVYADSVKGRFTISRDNSKNTLYLQMNSLRAEDTAVYYCARDLSNYMDYWGQGTLVTVSS
VL: DIQMTQSPATLSLSPGERATLSCRASQTVSNYLAWYQQKPGQAPRLLIYDASNRATGIPARFSGSGSGTDFTLTISSLEPEDFAVYYCQQRSKWLSFGGGTKVEIK
notes: Human Fab from a phage display library
In the case of B2, in assay [4], the binding result is listed as “binds”.

B3: M62-B02 (Fab, V domains shown)
VH: EVQLLESGGGLVQPGGSLRLSCAASGFTFSMYIMNWVRQAPGKGLEWVSSIVSSGGWTFYADSVKGRFTISRDNSKNTLYLQMNSLRAEDTAVYYCARGHYGMDVWGQGTTVTVSS
VL: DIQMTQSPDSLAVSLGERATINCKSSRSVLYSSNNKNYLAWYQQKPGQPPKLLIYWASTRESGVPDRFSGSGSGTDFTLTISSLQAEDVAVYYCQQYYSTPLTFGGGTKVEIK
notes: as for B2
As to B3, in assay [4], the binding result is reported as “binds”.

B4: M72-F03 (Fab, V domains shown)
VH: EVQLLESGGGLVQPGGSLRLSCAASGFTFSQYMMSWVRQAPGKGLEWVSVIYPSGGSTHYADSVKGRFTISRDNSKNTLYLQMNSLRAEDTAVYYCARGHYGMDVWGQGTTVTVSS
VL: DIQMTQSPDSLAVSLGERATINCKSSQSVLYSSNNKNYLAWYQHKAGQPPKLLIHWASSRASGVPDRFSGSGSGTDFTLTISSLQAEDVAVYYCQQFYSLPLTFGGGTKVEIR
notes: as for B2
As to B4, the binding result in assay [4] was “binds”.

B5: 1P5D10.2 (antibody, V domains shown)
VH: EVQLVESGGGLVKPGGSLKLSCAASGFTFSDYYMYWVRQTPEKRLEWVATISDGGLYTYYQDSVKGRFTISRDNAKNNLYLQMSSLKSEDTAMYYCAREDDYDGDFYTMDYWGQGTSVTVSS
VL: QIVLTQSPAIMSASPGEKVTITCSASSSVSYMHWFQQKPGTSPKLWIYSTSNLASGVPARFSGSGSGTSYSLTISRMEAEDAATYYCQQRSSYPLTFGAGTKLELK
notes: Murine hybridoma monoclonal antibody; subgroup III(D) heavy chain, subgroup VI kappa light chain
In the case of B5, the binding result in assay [5], in assay [6] and in assay [7] was “binds” in each case.

B6: M67-G02 (Fab, V domains shown)
VH: EVQLLESGGGLVQPGGSLRLSCAASGFTFSRYSMQWVRQAPGKGLEWVSVISPSGGSTMYADSVKGRFTISRDNSKNTLYLQMNSLRAEDTAVYYCARESYSSSWYSGYYYYYGMDVWGQGTTVTVSS
VL: DIQMTQSPASLSASVGDRVTITCRASQTIAGYLNWYQQTPGKAPNLLIYDASRLQSGVPSRFSGSGSGTDFTLSISGLQPEDFGTYYCQQSYTIPLTFGGGTKVEIK
notes: as for B2
Turning to B6, in assay [4], the binding result was “binds”.

B7: M53-E04 (Fab, V domains shown)
VH: EVQLLESGGGLVQPGGSLRLSCAASGFTFSNYEMSWVRQAPGKGLEWVSSIYSSGGETLYADSVKGRFTISRDNSKNTLYLQMNSLRAEDTAVYYCARDGAADYWGQGTLVTVSS
VL: QSELTQPPSASGTPGQWVTISCSGSTSNIGNNYVYWYQQLPGTAPKLLIYTNNQRPSGVPDRFSGSKSGTSASLAISGLRSEDEADYYCATWDDSLYAPVFGGGTKVTVL
notes: as for B2
Regarding B7, in assay [4], the binding result was “binds”.

B8: M63-E10 (Fab, V domains shown)
VH: EVQLLESGGGLVQPGGSLRLSCAASGFTFSQYKMSWVRQAPGKGLEWVSSISSSGGTNYADSVKGRFTISRDNSKNTLYLQMNSLRAEDTAMYYCARRNYGDRPYWYFDLWGRGTLVTVSS
VL: DIQMTQSPSTLSASVGDRVTITCRASQTISRWLAWYQHKPGKAPKLLIYKTSNLESGVPSRFSGSGSGTEFTLTISSLQPDDFATYYCQQYKSYSITFGPGTKVDIK
notes: as for B2
On to B8, for which the binding result in assay [4] is “binds”.

B9: M73-C04 (Fab, V domains shown)
VH: EVQLLESGGGLVQPGGSLRLSCAASGFTFSPYAMVWVRQAPGKGLEWVSSISPSGGGTGYADSVKGRFTISRDNSKNTLYLQMNSLRAEDTAVYYCAREGWNYYYGMDVWGQGTTVTVSS
VL: DIQMTQSPATLSLSPGERATLSCRASQSVSSYLAWYQQKPGQAPRLLIYDASNRATGIPARFSGSGSGTDFTLAISSLQPEDSATYYCLQDFIYPYTFGQGTKLEIR
notes: as for B2
In the case of B9, the binding result in assay [4] is given as “binds”.

B10: M50-H01 (Fab, V domains shown)
VH: EVQLLESGGGLVQPGGSLRLSCAASGFTFSDYPMMWVRQAPGKGLEWVSRISPSGGHTIYADSVKGRFTISRDNSKNTLYLQMNSLRAEDTAVYYCAKDWHGGGAFDIWGQGTMVTVSS
VL: DIQMTQSPSSVSASVGDRVTITCRASQGIRSWLAWYQQKPGKAPKLLIYDASTLQSGVPSRFRGGGSGTDFTLTISSLQPEDFATYYCQQSYSTPLTFGGGTKVEIK
notes: as for B2
For the molecule B10, in assay [4], the binding result was “binds”.

B11: M66-B03 (Fab, V domains shown)
VH: EVQLLESGGGLVQPGGSLRLSCAASGFTFSPYWMSWVRQAPGKGLEWVSVIYPSGGHTYYADSVKGRFTISRDNSKNTLYLQMNSLRAEDTAVYYCARPGFGAAFDYWGPGTLVTVSS
VL: DIQMTQSPSSVSASVGDRVTITCRASQGISSWLAWYQQKPGKAPKLLIYAASSLQSGVPSRFSGSGSGTDFTLTISSLQPEDFATYYCQQANSFPLTFGGGTKVEIK
In the case of B11, the binding result in assay [4] is listed as “binds”.

B12: M51-H09 (Fab, V domains shown)
VH: EVQLLESGGGLVQPGGSLRLSCAASGFTFSPYSMTWVRQAPGKGLEWVSSIVPSGGKTWYADSVKGRFTISRDNSKNTLYLQMNSLRAEDTAVYYCARTNLSYFDYWGQGTLVTVSS
VL: QSELTQPPSASGSPGQSVTISCTGTSNDVGSYNYISWFQQHPGKAPKLMIYEVNKRPSGVPDRFSGSKSDNTASLTVSGLQAEDEADYYCTSYAGSHKWVFGGGTKLTVL
notes: as for B2
Turning to B12, the binding result in assay [4] is “binds”.
